Laboratory results reported in the supplement of paper PMC12042874.
± gives the uncertainty stated by the source.

Experiment: amyloid nucleation score (Sup35N fusion, yeast selection) (log enrichment); library NNK3; higher = more nucleation; inactive = no reads after selection
Procedure, shortened: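 The nucleation score equals the log enrichment of output over input reads from DiMSum, centred on the mode score of non-aggregating sequences. It was computed only for sequences with 100 or more input reads. The reads came from Illumina sequencing of plasmid inserts from psi-negative yeast expressing Sup35N fused to peptides of 20 random codons, induced with 100 μM copper sulfate for 24 hours and grown 7 days at 30°C without adenine and uracil.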

| Substance | amyloid nucleation score |
| --- | --- |
| GFKFKYSYRIDLWEGHWVVR | inactive |
| GFLDDYIIMDQLLHEFVKRF | inactive |
| GFRFNKIRMSPDSNTLCGCA | inactive |
| GFSCVNFFAWIL | 1.81 ± 0.082 |
| GFSLKGLNSNDTRSLSHKLG | inactive |
| GFSYMLVFSNGVYMLIRIRW | inactive |
| GFYNFVFSCASGYRCTGVMG | -0.357 ± 0.59 |
| GGAKVLTV | inactive |
| GGCIGGSYSLERMFYSRVDE | inactive |
| GGKLKRCVYG | inactive |
| GGRLSLKESWKAGFSIAERF | inactive |
| GGRYTVAAEVKVTHAYATG | inactive |
| GGSLYACRGTLRLSNTNVKA | inactive |
| GGTLFLYGLIHQHWFLRMHE | 1.05 ± 0.16 |
| GHFGVLMSGSTGGNLANQSG | inactive |
| GHFLISIKKLL | inactive |
| GHLMGETTY | inactive |
| GHLSIHREGFNLVSHLCANF | inactive |
| GHMWFFVFY | 2.52 ± 0.061 |
| GHRRVVSLCYTYMRWI | inactive |
| GIAIFTMDCGV | inactive |
| GIELAVFYCHYIRVGSDVY | inactive |
| GIFKFMAV | inactive |

| Substance | amyloid nucleation score |
| --- | --- |
| GIGILEVWVSVRYGSWFKRI | inactive |
| GIGVSESRCVTVIWYYGGAV | inactive |
| GILLRFNKGA | inactive |
| GIQIYAMFTFSKSFMLGNWY | inactive |
| GIRVHGNFYMNSGSSTGG | 1.49 ± 0.073 |
| GIWCYAITLGFRPAGSTWDS | 1.02 ± 0.15 |
| GIYPSHHWGI | inactive |
| GKISVMYEMIYNLTNYDGRL | inactive |
| GKSLMK | inactive |
| GKVATHSIHDYFELSMTKGC | inactive |
| GKVNSWIGVRMKLLWSGRFG | inactive |
| GLAQTSLFI | inactive |
| GLCRNCF | inactive |
| GLFCNVFMNKCSS | inactive |
| GLFSLIIR | inactive |
| GLGMGAPQSILWVGDLLMTN | inactive |
| GLKFMRNVSTFRYLRRKTDY | inactive |
| GLLFCSL | -0.248 ± 0.34 |
| GLLPSKKILFLAILTHNRCW | inactive |
| GLLSR | inactive |
| GLLVTTPMLKLNYFNVLDLG | 0.99 ± 0.1 |
| GLMALNVMSVNTTEYCRAYW | 0.56 ± 0.12 |
| GLMLDFILYQWTWYKLSMDT | inactive |

| Substance | amyloid nucleation score |
| --- | --- |
| GLNDHSLI | inactive |
| GLRDMGDKYVYMVSGGCIYG | 2.19 ± 0.069 |
| GLRNYRDGVKIASAVSVGAS | inactive |
| GLVCWTG | inactive |
| GMAETRWGLRKIWKVAGARI | -0.85 ± 1.9 |
| GMALPRVIVFIGNRITTNLG | 2.31 ± 0.065 |
| GMERFNGFKRVFMDSGCLHR | -0.707 ± 0.96 |
| GMHCFIEPLSRVFGSNCGNY | inactive |
| GMPKSWYMPVRMMQASSSAF | inactive |
| GMSICVPSKS | 0.179 ± 0.34 |
| GMSLECNFIYL | 1.84 ± 0.1 |
| GNEWRWWVLRNLLSCFSIP | inactive |
| GNHQSRYSFVP | inactive |
| GNKMVLVW | inactive |
| GNMCDRTYLRMMLFHCRMPS | inactive |
| GNSNTMSVLRCFLNPFPLVW | inactive |
| GNVMSRRDTLWIVIYVRFRH | inactive |
| GNYVTVHIYVKAVFGNG | inactive |
| GPEHQSVPRAFHQLRYLIYN | inactive |
| GPFARNS | inactive |
| GPFQLA | inactive |
| GPHIVRYERTFNG | inactive |
| GPHRILIAVESMTYFEGEVW | inactive |

| Substance | amyloid nucleation score |
| --- | --- |
| GPIYWLLKGQNFESRVDTNL | inactive |
| GPNRYW | inactive |
| GPSLYINLMRVGCRRGHLFL | 1.46 ± 0.12 |
| GPVSYHMRCLYTGLSIPHLF | inactive |
| GRAPYMWC | -0.955 ± 2.4 |
| GRARMFGLGRVFKVCMKLRA | -0.543 ± 0.54 |
| GRDMMWAVCDFEAKLELETG | inactive |
| GRGIYGIIARASAPVRRSLV | inactive |
| GRPHEPGKFIRNSSIGSGS | -0.479 ± 1.1 |
| GRRRIRNCVSRACLMYIQHV | 0.434 ± 0.23 |
| GRSLVYR | inactive |
| GRSSRCWGGMCRGGNLCEEF | inactive |
| GRVFRCTPEVFIK | inactive |
| GRWGGDYFCVGNFMG | inactive |
| GRYVCRL | -0.459 ± 0.9 |
| GSEMVAGHS | inactive |
| GSFGYNCVKFHSDGFQAGRG | inactive |
| GSFYCLYFVGDVIIILTCLR | inactive |
| GSGMGL | inactive |
| GSGVRGQRMSGKCR | 0.164 ± 0.42 |
| GSGYVTGGSSLLRARWSRGG | 1.26 ± 0.17 |
| GSHELHWSVGYQESVLLRYH | inactive |
| GSMLKAMELSDVVGSCIY | inactive |

| Substance | amyloid nucleation score |
| --- | --- |
| GSNVNEVKNAQYTSRVGVCR | inactive |
| GSNYSWSLLL | inactive |
| GSRLAGLVVYDFSLSQWYFS | 2.84 ± 0.079 |
| GSSISRRDFNVAILFWWQGD | inactive |
| GSSYGVIIVQYYP | 2.02 ± 0.076 |
| GSVSYISLSDNWVSGRKK | inactive |
| GSWDI | inactive |
| GTDWCTRHMPGIDPCDSVVC | -0.557 ± 1 |
| GTEVILSLVSESTGKRAARL | inactive |
| GTGWVTSVFLCTVNWVDHRR | 2.4 ± 0.084 |
| GTKWSATITGWV | inactive |
| GTNFALRHGMIILSRLWAYW | inactive |
| GTPALCQ | inactive |
| GTRNMKPLTKAETSRLG | 0.139 ± 0.45 |
| GTSMSRPDIVTDKVMPFLRR | inactive |
| GVEIRYLQQ | inactive |
| GVFFFNYLNS | 0.63 ± 0.14 |
| GVFMLVSNFASNWAT | inactive |
| GVGLIE | inactive |
| GVHIMRGGGIYVVGGLESWA | inactive |
| GVKCPKKTNRQWGIVALMRP | inactive |
| GVKVSDMSPDRDNLWFSRCS | inactive |
| GVLCMWHLCFDVCDGKIIGG | 1.74 ± 0.078 |

| Substance | amyloid nucleation score |
| --- | --- |
| GVLQLNVIVTYFVMDMCSWL | 1.78 ± 0.095 |
| GVMYQACWSLASTYFTVNSS | inactive |
| GVNDRGDENGVVGA | inactive |
| GVSRGLSLPRSLKYRYCCAV | inactive |
| GVSRLETGNFAASPMMHYKG | inactive |
| GVVLSYNGTFWRVLINHHMC | inactive |
| GVWVA | -0.931 ± 1.9 |
| GVYMLLDVPYGTASTSAMGS | inactive |
| GVYSVSLLVLWMSMRASIAC | inactive |
| GWAGGSLNARMSRWF | 0.881 ± 0.17 |
| GWPVSLN | inactive |
| GWVFTMDFTSYLECTDMGRS | inactive |
| GWVYDMVYYRSVKMGCAKRS | 0.389 ± 0.22 |
| GYDAGAWPRWRRSIWVHGYG | inactive |
| GYGSAQCQFRWWYCFE | -0.317 ± 0.65 |
| GYICLGPPAVTVIYVRICRQ | -0.495 ± 1 |
| GYILVLYADRAKICDKFYVG | 2.27 ± 0.05 |
| GYLIIVIRLSAIDRHQ | inactive |
| GYLRNMVWRMSQYIREVCPR | inactive |
| GYRDLRGWNVNRKDSLVS | inactive |
| GYSKNI | inactive |
| GYVGLHTFSWEDLENRMDKH | inactive |
| HAFYALDKKVPVTQLKFARQ | -0.315 ± 0.84 |

| Substance | amyloid nucleation score |
| --- | --- |
| HALGVSGRFDNNVVIFARGS | inactive |
| HALSRDVVKMLCSFNNYLTW | inactive |
| HANCANRLNYLYVLYRAS | inactive |
| HCSYCVVSE | inactive |
| HCVNRRKQYVRIRTYARLPC | inactive |
| HDLAETCGSSPI | inactive |
| HDVDLGWFSRYGIFRALRRE | inactive |
| HDYDAIRRLSRMCDVVEYSR | inactive |
| HEISSICTRFWANSLIRMSC | inactive |
| HEYECGWIGVVFTMILMSLS | inactive |
| HFAYRFCYLANRRRDVYRSA | inactive |
| HFCPVRKGGAGIRYFYCSCW | 1.7 ± 0.12 |
| HFFLLMLSYSYYDCVFRYKC | inactive |
| HFNRVLVPYAFSFIGKMEWF | inactive |
| HGKKRNGRSPYINGFYLCYW | inactive |
| HGRAYSRNT | inactive |
| HGVNT | inactive |
| HGVPYAIEASMLMFYLTFWR | inactive |
| HHGWVVYNWVDKVINSHIVG | 0.478 ± 0.28 |
| HHHSATLYFTFMSVTE | inactive |
| HHKITCLNRW | inactive |
| HIFFFSPKSVVHVIASRGCL | 1.59 ± 0.081 |
| HISGYNDYMFDP | inactive |
